The values that follow come from patent US6987089 (dated 2006).

Experiment [1] concerns the target T1, wild type CAD (CAD-WT) (1-345), caspase-activated deoxyribonuclease, 35S-labelled (mouse, UniProt O54788 1-344, 35S label).
T1 construct: range 1-345; also called 35S-labeled CAD
T1 sequence (looked up): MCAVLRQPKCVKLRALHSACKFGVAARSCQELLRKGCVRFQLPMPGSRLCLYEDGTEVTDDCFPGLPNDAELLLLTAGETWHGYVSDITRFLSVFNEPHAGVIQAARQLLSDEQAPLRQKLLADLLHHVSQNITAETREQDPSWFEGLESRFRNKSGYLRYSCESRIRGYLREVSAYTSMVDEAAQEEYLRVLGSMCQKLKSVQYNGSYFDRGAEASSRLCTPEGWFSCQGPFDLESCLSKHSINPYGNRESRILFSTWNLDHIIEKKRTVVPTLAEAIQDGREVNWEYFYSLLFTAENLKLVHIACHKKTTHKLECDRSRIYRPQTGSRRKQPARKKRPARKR
As to the kind of experiment: GST pull-down on glutathione-agarose beads, labelled CAD, SDS-PAGE. The protocol: In detail, wild type CIA (CIA-WT) and its deletion mutants, CIA-ΔN, CIA-ΔC and CIA-CEN, all of them prepared in Example 4, were immobilized onto glutathione-agarose beads and then applied to in vitro translated [^35S] methionine-labeled CAD. Meanwhile, wild type CAD (CAD-WT) (1–345) and its deletion mutants, CAD-ΔN deficient in a […] region (Δ1–83), CAD-NT containing N-terminal half only (Δ162–345), CAD-ΔC deficient in a C-terminal region (Δ290–345), were prepared by PCR and cloned to pLexA (Clonetech). After being isolated and purified from E. coli transformants harboring the expression vectors, the recombinant proteins CAD-WT, CAD-ΔN, CAD-NT and CAD-ΔC, were labeled with ^35S radioactive isotope, and then applied to the glutathione-agarose beads onto which GST-CIA was immobilized. The proteins bounded to the glutathione-agarose beads were eluted, and separated on a gel by SDS-PAGE.

Experiment [2] addresses T2, ASK1 wild-type, full length (apoptosis signal-regulating kinase 1), in vitro translated and … (UniProt Q99683 1-1374, 35S-methionine label).
T2 construct: range 1-1375; also called full length ASK1; 35S-labeled ASK1
T2 sequence (looked up): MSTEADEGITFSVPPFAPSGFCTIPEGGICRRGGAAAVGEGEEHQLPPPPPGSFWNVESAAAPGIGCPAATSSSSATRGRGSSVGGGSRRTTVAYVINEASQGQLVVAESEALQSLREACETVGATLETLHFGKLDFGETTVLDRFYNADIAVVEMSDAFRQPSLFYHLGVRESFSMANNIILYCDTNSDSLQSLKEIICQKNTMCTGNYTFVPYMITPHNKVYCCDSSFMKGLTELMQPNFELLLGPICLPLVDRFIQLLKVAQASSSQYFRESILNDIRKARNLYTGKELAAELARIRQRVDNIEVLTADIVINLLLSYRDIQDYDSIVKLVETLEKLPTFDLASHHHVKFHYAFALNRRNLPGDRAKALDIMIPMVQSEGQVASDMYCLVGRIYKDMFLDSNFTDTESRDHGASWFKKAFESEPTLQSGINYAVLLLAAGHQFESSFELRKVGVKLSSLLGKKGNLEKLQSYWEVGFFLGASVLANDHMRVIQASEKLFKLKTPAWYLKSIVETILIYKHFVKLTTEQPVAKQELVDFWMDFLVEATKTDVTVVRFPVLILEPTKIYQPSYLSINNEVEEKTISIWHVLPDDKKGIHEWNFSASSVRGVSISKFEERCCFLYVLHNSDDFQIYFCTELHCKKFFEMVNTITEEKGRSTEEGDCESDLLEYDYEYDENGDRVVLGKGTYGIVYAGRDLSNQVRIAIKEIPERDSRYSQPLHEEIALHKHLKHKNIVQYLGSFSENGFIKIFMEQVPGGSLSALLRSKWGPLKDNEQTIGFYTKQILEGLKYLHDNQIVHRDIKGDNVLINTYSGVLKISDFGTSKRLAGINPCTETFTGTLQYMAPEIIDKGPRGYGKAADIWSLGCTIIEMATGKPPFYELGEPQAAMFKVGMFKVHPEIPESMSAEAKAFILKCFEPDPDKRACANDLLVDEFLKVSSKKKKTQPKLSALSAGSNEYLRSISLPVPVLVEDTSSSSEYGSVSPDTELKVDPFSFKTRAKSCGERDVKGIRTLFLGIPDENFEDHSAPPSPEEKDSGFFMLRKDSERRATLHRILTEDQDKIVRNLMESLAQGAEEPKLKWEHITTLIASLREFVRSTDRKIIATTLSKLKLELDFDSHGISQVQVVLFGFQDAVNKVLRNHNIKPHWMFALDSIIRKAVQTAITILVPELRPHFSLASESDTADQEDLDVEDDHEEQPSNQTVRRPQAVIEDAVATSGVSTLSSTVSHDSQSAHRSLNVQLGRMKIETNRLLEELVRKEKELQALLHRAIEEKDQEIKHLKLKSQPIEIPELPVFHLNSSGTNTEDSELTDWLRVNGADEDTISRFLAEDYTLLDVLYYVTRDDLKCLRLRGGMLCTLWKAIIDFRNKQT
As to the kind of experiment: GST pull-down on glutathione-agarose beads, 35S-labelled ASK1, SDS-PAGE. The protocol: After being immobilized onto glutathione-agarose beads, GST-CIA-WT and its deletion recombinant peptides were reacted with the […] [^35S] methionine-labeled ASK1 or its mutant peptides at 4° C. for 3 hours in a buffer (50 mM Tris, pH 7.5, 150 mM NaCl, 2 mM EDTA, 1 mM dithiothreitol, 0.1% NP-40 and 5 mg/ml BSA). After completion of the reaction, the glutathione-agarose beads were washed three times with a buffer (50 mM HEPES, pH 7.5, 150 mM NaCl, 1 mM EDTA, 1 mM dithiothreitol, 0.1% Tween 20). Next, ^35S-labeled peptides were eluted from the glutathione-agarose beads and analyzed by SDS-PAGE.

B1: GST-CIA-CEN (CIA containing only amino acids 79 to 174) (other)
chain: AAFRQVQGSEISSIDEFCRKFRLDCPLAMERIKEDRPITIKDDKGNLNRCIADVVSLFITVMDKLRLEIRAMDEIQPDLRELMETMHRMSHLPPDF
notes: also called CIA mutant peptide deficient in both terminal regions; not shown: N-terminal GST of pGEX-4T-1 and its linker
As for B1, the binding result in experiment [1] and in experiment [2] was “no binding” each time.

B2: GST-CIA-ΔN (CIA deficient in N-terminal amino acids 1 to 78) (other)
chain: AAFRQVQGSEISSIDEFCRKFRLDCPLAMERIKEDRPITIKDDKGNLNRCIADVVSLFITVMDKLRLEIRAMDEIQPDLRELMETMHRMSHLPPDFEGRQTVSQWLQTLSGMSASDELDDSQVRQMLFDLESAYNAFNRFLHA
notes: Range follows from 'deficient in N-terminal amino acids 1 to 78' of the 221-residue protein; also called CIA-AN; N-terminal region-deleted CIA peptide; not shown: N-terminal GST of pGEX-4T-1 and its linker
For the molecule B2, the binding result in experiment [1] is “no binding”.
